Experiments:
TβRII-GFP [1] = target: TβRII-GFP (UniProt P37173); experiment: AFM single-molecule force spectroscopy; TGF-β1-modified AFM tips on live HeLa cells expressing TβRII-GFP; contact mode, room temperature, loading rate 1.0 x 10^4 pN/s; untreated cells
TβRII-GFP [2] = target: TβRII-GFP (UniProt P37173); experiment: AFM single-molecule force spectroscopy; TGF-β1-modified AFM tips on live HeLa cells expressing TβRII-GFP; contact mode, room temperature, loading rate 1.0 x 10^4 pN/s; cells treated with 50 μM metformin

Chain of TβRII-GFP (P37173 23-567): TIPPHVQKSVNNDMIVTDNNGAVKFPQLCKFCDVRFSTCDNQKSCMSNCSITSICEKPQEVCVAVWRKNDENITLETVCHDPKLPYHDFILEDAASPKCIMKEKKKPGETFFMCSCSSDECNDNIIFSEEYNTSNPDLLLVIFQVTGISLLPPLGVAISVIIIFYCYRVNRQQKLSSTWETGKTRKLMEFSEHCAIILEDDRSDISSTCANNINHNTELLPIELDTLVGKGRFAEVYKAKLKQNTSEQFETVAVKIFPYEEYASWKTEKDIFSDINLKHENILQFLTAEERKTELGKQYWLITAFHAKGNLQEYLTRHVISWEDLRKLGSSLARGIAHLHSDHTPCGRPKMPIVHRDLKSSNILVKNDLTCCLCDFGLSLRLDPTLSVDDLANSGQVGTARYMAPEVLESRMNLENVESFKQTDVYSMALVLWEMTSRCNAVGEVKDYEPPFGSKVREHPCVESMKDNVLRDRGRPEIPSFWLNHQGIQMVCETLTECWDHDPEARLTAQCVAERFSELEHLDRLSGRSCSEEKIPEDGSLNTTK

Recombinant human TGF-β1 (ligand)
binding force (averaged histogram peak value) (TβRII-GFP [1]): 49.5 pN | binding probability (TβRII-GFP [1]): 21.7% | binding force (averaged histogram peak value), with 50 μM metformin (TβRII-GFP [2]): 49.3 pN | binding probability, with 50 μM metformin (TβRII-GFP [2]): 9.9%

— PMC4923858
